In patent US20110091994A1, “Methods for Screening Compounds for Treating and/or Preventing an Hepatitis C Virus Infection” (priority 2008, published 2011):

Legend:
[1] = target: T1, HCV proteins (Hepatitis C virus genotype 1b, UniProt Q9WMX2); assay: Validation by Y2H pairwise matrices; format: binding; conditions: validation of interaction with HCV protein NS3;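 note: yeast two-hybrid pairwise tests of interactions first found in Y2H screens of HCV bait proteins against human cDNA libraries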
T1 construct: expressed in transfected cells
T1 sequence (Q9WMX2 1027-1657): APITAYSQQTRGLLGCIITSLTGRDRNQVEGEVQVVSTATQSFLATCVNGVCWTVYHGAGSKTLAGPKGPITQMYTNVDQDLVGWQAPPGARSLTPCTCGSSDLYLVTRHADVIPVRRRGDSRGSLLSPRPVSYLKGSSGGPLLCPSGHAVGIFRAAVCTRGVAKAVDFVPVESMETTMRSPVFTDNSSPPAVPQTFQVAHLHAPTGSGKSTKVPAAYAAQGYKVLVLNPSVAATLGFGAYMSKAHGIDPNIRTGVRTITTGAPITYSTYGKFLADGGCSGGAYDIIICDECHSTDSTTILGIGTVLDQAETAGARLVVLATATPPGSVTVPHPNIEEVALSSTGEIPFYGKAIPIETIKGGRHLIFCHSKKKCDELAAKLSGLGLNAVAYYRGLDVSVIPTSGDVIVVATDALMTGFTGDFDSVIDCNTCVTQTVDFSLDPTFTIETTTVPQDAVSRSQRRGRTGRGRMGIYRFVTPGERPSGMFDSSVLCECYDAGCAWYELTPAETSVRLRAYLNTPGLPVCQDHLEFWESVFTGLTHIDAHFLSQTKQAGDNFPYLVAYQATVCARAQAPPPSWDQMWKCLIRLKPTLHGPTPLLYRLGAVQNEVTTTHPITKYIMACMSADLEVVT

[2] = target: T2, HCV ORFs (Gal4-DB fusions) (Hepatitis C virus genotype 1b, UniProt Q9WMX2); format: binding, HCV genotype 1b, isolate con1; conditions: HCV protein NS3 as bait; human protein as prey
T2 construct: expressed in transfected cells; host or cells: Saccharomyces cerevisiae MAV203 (IMAP1) / AH109 (IMAP2)
T2 sequence (Q9WMX2 1027-1657): as above

[3] = system: HCV ORFs (Gal4-DB fusions); format: binding, HCV genotype 1b, isolate con1; conditions: human protein listed by gene symbol; the value names the HCV protein it interacts with
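Throughout, for IMAP Y2H IMAP1 (number of IST): yeast two-hybrid screens using HCV genotype 1b proteins fused to Gal4-DB as baits against prey cDNA libraries from human spleen and foetal brain, IMAP1 via transformation and IMAP2 via mating.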
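Throughout, for IMAP Y2H IMAP2 (number of IST): yeast two-hybrid screens using HCV genotype 1b proteins fused to Gal4-DB as baits against prey cDNA libraries from human spleen and foetal brain, IMAP1 via transformation and IMAP2 via mating.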
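Throughout, for Interaction with viral protein: yeast two-hybrid screens using HCV genotype 1b proteins fused to Gal4-DB as baits against prey cDNA libraries from human spleen and foetal brain, IMAP1 via transformation and IMAP2 via mating.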

B1: PCYT2 (protein, UniProt Q99447 1-389, looked up)
Ethanolamine-phosphate …: MIRNGRGAAGGAEQPGPGGRRAVRVWCDGCYDMVHYGHSNQLRQARAMGDYLIVGVHTDEEIAKHKGPPVFTQEERYKMVQAIKWVDEVVPAAPYVTTLETLDKYNCDFCVHGNDITLTVDGRDTYEEVKQAGRYRECKRTQGVSTTDLVGRMLLVTKAHHSSQEMSSEYREYADSFGKCPGGRNPWTGVSQFLQTSQKIIQFASGKEPQPGETVIYVAGAFDLFHIGHVDFLEKVHRLAERPYIIAGLHFDQEVNHYKGKNYPIMNLHERTLSVLACRYVSEVVIGAPYAVTAELLSHFKVDLVCHGKTEIIPDRDGSDPYQEPKRRGIFRQIDSGSNLTTDLIVQRIITNRLEYEARNQKKEAKELAFLEAARQQAAQPLGERDGDF
For B1, the Y2H matrices [1] was “+”, the “IMAP Y2H IMAP1 (number of IST)” value [2] was 1 and the “Interaction with viral protein” value [3] was “NS3”.

B2: NUP62 (protein, UniProt P37198 2-522, looked up)
Nuclear pore glycoprotein p62: SGFNFGGTGAPTGGFTFGTAKTATTTPATGFSFSTSGTGGFNFGAPFQPATSTPSTGLFSLATQTPATQTTGFTFGTATLASGGTGFSLGIGASKLNLSNTAATPAMANPSGFGLGSSNLTNAISSTVTSSQGTAPTGFVFGPSTTSVAPATTSGGFSFTGGSTAQPSGFNIGSAGNSAQPTAPATLPFTPATPAATTAGATQPAAPTPTATITSTGPSLFASIATAPTSSATTGLSLCTPVTTAGAPTAGTQGFSLKAPGAASGTSTTTSTAATATATTTSSSSTTGFALNLKPLAPAGIPSNTAAAVTAPPGPGAAAGAAASSAMTYAQLESLINKWSLELEDQERHFLQQATQVNAWDRTLIENGEKITSLHREVEKVKLDQKRLDQELDFILSQQKELEDLLSPLEELVKEQSGTIYLQHADEEREKTYKLAENIDAQLKRMAQDLKDIIEHLNTSGAPADTSDPLQQICKILNAHMDSLQWIDQNSALLQRKVEEVTKVCEGRRKEQERSFRITFD
B2 was tested, and the Y2H matrices [1] was “+”, the “IMAP Y2H IMAP1 (number of IST)” value [2] was 3 and the “Interaction with viral protein” value [3] was “NS3”.

B3: PLEKHG4 (protein, UniProt Q58EX7 1-1191, looked up)
Puratrophin-1: MERPLENGDESPDSQGHATDWRFAVCSFRDAWEEEEPASQMHVKDPGPPRPPAGATQDEELQGSPLSRKFQLPPAADESGDAQRGTVESSSVLSEGPGPSGVESLLCPMSSHLSLAQGESDTPGVGLVGDPGPSRAMPSGLSPGALDSDPVGLGDPLSEISKLLEAAPSGSGLPKPADCLLAQDLCWELLASGMATLPGTRDVQGRAVLLLCAHSPAWLQSECSSQELIRLLLYLRSIPRPEVQALGLTVLVDARICAPSSSLFSGLSQLQEAAPGAVYQVLLVGSTLLKEVPSGLQLEQLPSQSLLTHIPTAGLPTSLGGGLPYCHQAWLDFRRRLEALLQNCQAACALLQGAIESVKAVPQPMEPGEVGQLLQQTEVLMQQVLDSPWLAWLQCQGGRELTWLKQEVPEVTLSPDYRTAMDKADELYDRVDGLLHQLTLQSNQRIQALELVQTLEARESGLHQIEVWLQQVGWPALEEAGEPSLDMLLQAQGSFQELYQVAQEQVRQGEKFLQPLTGWEAAELDPPGARFLALRAQLTEFSRALAQRCQRLADAERLFQLFREALTWAEEGQRVLAELEQERPGVVLQQLQLHWTRHPDLPPAHFRKMWALATGLGSEAIRQECRWAWARCQDTWLALDQKLEASLKLPPVGSTASLCVSQVPAAPAHPPLRKAYSFDRNLGQSLSEPACHCHHAATIAACRRPEAGGGALPQASPTVPPPGSSDPRSLNRLQLVLAEMVATEREYVRALEYTMENYFPELDRPDVPQGLRGQRAHLFGNLEKLRDFHCHFFLRELEACTRHPPRVAYAFLRHRVQFGMYALYSKNKPRSDALMSSYGHTFFKDKQQALGDHLDLASYLLKPIQRMGKYALLLQELARACGGPTQELSALREAQSLVHFQLRHGNDLLAMDAIQGCDVNLKEQGQLVRQDEFVVRTGRHKSVRRIFLFEELLLFSKPRHGPTGVDTFAYKRSFKMADLGLTECCGNSNLRFEIWFRRRKARDTFVLQASSLAIKQAWTADISHLLWRQAVHNKEVRMAEMVSMGVGNKAFRDIAPSEEAINDRTVNYVLKCREVRSRASIAVAPFDHDSLYLGASNSLPGDPASCSVLGSLNLHLYRDPALLGLRCPLYPSFPEEAALEAEAELGGQPSLTAEDSEISSQCPSASGSSGSDSSCVSGQALGRGLEDLPCV
B3 was tested, and the Y2H matrices [1] was “+”, the “IMAP Y2H IMAP1 (number of IST)” value [2] was 1 and the “Interaction with viral protein” value [3] was “NS3”.

B4: PNPLA8 (protein, UniProt Q9NP80 1-782, looked up)
Calcium-independent …: MSINLTVDIYIYLLSNARSVCGKQRSKQLYFLFSPKHYWRISHISLQRGFHTNIIRCKWTKSEAHSCSKHCYSPSNHGLHIGILKLSTSAPKGLTKVNICMSRIKSTLNSVSKAVFGNQNEMISRLAQFKPSSQILRKVSDSGWLKQKNIKQAIKSLKKYSDKSAEKSPFPEEKSHIIDKEEDIGKRSLFHYTSSITTKFGDSFYFLSNHINSYFKRKEKMSQQKENEHFRDKSELEDKKVEEGKLRSPDPGILAYKPGSESVHTVDKPTSPSAIPDVLQVSTKQSIANFLSRPTEGVQALVGGYIGGLVPKLKYDSKSQSEEQEEPAKTDQAVSKDRNAEEKKRLSLQREKIIARVSIDNRTRALVQALRRTTDPKLCITRVEELTFHLLEFPEGKGVAVKERIIPYLLRLRQIKDETLQAAVREILALIGYVDPVKGRGIRILSIDGGGTRGVVALQTLRKLVELTQKPVHQLFDYICGVSTGAILAFMLGLFHMPLDECEELYRKLGSDVFSQNVIVGTVKMSWSHAFYDSQTWENILKDRMGSALMIETARNPTCPKVAAVSTIVNRGITPKAFVFRNYGHFPGINSHYLGGCQYKMWQAIRASSAAPGYFAEYALGNDLHQDGGLLLNNPSALAMHECKCLWPDVPLECIVSLGTGRYESDVRNTVTYTSLKTKLSNVINSATDTEEVHIMLDGLLPPDTYFRFNPVMCENIPLDESRNEKLDQLQLEGLKYIERNEQKMKKVAKILSQEKTTLQKINDWIKLKTDMYEGLPFFSKL
For B4, the Y2H matrices [1] was “+”, the “IMAP Y2H IMAP1 (number of IST)” value [2] was 1 and the “Interaction with viral protein” value [3] was “NS3”.

B5: PDLIM5 (protein, UniProt Q96HC4 2-596, looked up)
PDZ and LIM domain protein 5: SNYSVSLVGPAPWGFRLQGGKDFNMPLTISSLKDGGKAAQANVRIGDVVLSIDGINAQGMTHLEAQNKIKGCTGSLNMTLQRASAAPKPEPVPVQKGEPKEVVKPVPITSPAVSKVTSTNNMAYNKAPRPFGSVSSPKVTSIPSPSSAFTPAHATTSSHASPSPVAAVTPPLFAASGLHANANLSADQSPSALSAGKTAVNVPRQPTVTSVCSETSQELAEGQRRGSQGDSKQQNGPPRKHIVERYTEFYHVPTHSDASKKRLIEDTEDWRPRTGTTQSRSFRILAQITGTEHLKESEADNTKKANNSQEPSPQLASSVASTRSMPESLDSPTSGRPGVTSLTAAAAFKPVGSTGVIKSPSWQRPNQGVPSTGRISNSATYSGSVAPANSALGQTQPSDQDTLVQRAEHIPAGKRTPMCAHCNQVIRGPFLVALGKSWHPEEFNCAHCKNTMAYIGFVEEKGALYCELCYEKFFAPECGRCQRKILGEVISALKQTWHVSCFVCVACGKPIRNNVFHLEDGEPYCETDYYALFGTICHGCEFPIEAGDMFLEALGYTWHDTCFVCSVCCESLEGQTFFSKKDKPLCKKHAHSVNF
In the case of B5, the Y2H matrices [1] is reported as “+”, the “IMAP Y2H IMAP1 (number of IST)” value [2] is reported as 1 and the “Interaction with viral protein” value [3] is reported as “NS3”.

B6: PICK1 (protein, UniProt Q9NRD5 1-415, looked up)
PRKCA-binding protein: MFADLDYDIEEDKLGIPTVPGKVTLQKDAQNLIGISIGGGAQYCPCLYIVQVFDNTPAALDGTVAAGDEITGVNGRSIKGKTKVEVAKMIQEVKGEVTIHYNKLQADPKQGMSLDIVLKKVKHRLVENMSSGTADALGLSRAILCNDGLVKRLEELERTAELYKGMTEHTKNLLRAFYELSQTHRAFGDVFSVIGVREPQPAASEAFVKFADAHRSIEKFGIRLLKTIKPMLTDLNTYLNKAIPDTRLTIKKYLDVKFEYLSYCLKVKEMDDEEYSCIALGEPLYRVSTGNYEYRLILRCRQEARARFSQMRKDVLEKMELLDQKHVQDIVFQLQRLVSTMSKYYNDCYAVLRDADVFPIEVDLAHTTLAYGLNQEEFTDGEEEEEEEDTAAGEPSRDTRGAAGPLDKGGSWCDS
With B6 the Y2H matrices [1] was “+”, the “IMAP Y2H IMAP1 (number of IST)” value [2] was 3 and the “Interaction with viral protein” value [3] was “NS3”.

B7: N-PAC (protein, UniProt Q49A26 1-553, looked up)
Cytokine-like nuclear factor …: MAAVSLRLGDLVWGKLGRYPPWPGKIVNPPKDLKKPRGKKCFFVKFFGTEDHAWIKVEQLKPYHAHKEEMIKINKGKRFQQAVDAVEEFLRRAKGKDQTSSHNSSDDKNRRNSSEERSRPNSGDEKRKLSLSEGKVKKNMGEGKKRVSSGSSERGSKSPLKRAQEQSPRKRGRPPKDEKDLTIPESSTVKGMMAGPMAAFKWQPTASEPVKDADPHFHHFLLSQTEKPAVCYQAITKKLKICEEETGSTSIQAADSTAVNGSITPTDKKIGFLGLGLMGSGIVSNLLKMGHTVTVWNRTAEKCDLFIQEGARLGRTPAEVVSTCDITFACVSDPKAAKDLVLGPSGVLQGIRPGKCYVDMSTVDADTVTELAQVIVSRGGRFLEAPVSGNQQLSNDGMLVILAAGDRGLYEDCSSCFQAMGKTSFFLGEVGNAAKMMLIVNMVQGSFMATIAEGLTLAQVTGQSQQTLLDILNQGQLASIFLDQKCQNILQGNFKPDFYLKYIQKDLRLAIALGDAVNHPTPMAAAANEVYKRAKALDQSDNDMSAVYRAYIH
With B7 the Y2H matrices [1] was “+”, the “IMAP Y2H IMAP1 (number of IST)” value [2] was 2 and the “IMAP Y2H IMAP2 (number of IST)” value [2] was 11. For the same molecule, the “Interaction with viral protein” value [3] was “NS3”.

B8: PKNOX1 (protein, UniProt P55347 1-436, looked up)
Homeobox protein PKNOX1: MMATQTLSIDSYQDGQQMQVVTELKTEQDPNCSEPDAEGVSPPPVESQTPMDVDKQAIYRHPLFPLLALLFEKCEQSTQGSEGTTSASFDVDIENFVRKQEKEGKPFFCEDPETDNLMVKAIQVLRIHLLELEKVNELCKDFCSRYIACLKTKMNSETLLSGEPGSPYSPVQSQQIQSAITGTISPQGIVVPASALQQGNVAMATVAGGTVYQPVTVVTPQGQVVTQTLSPGTIRIQNSQLQLQLNQDLSILHQDDGSSKNKRGVLPKHATNVMRSWLFQHIGHPYPTEDEKKQIAAQTNLTLLQVNNWFINARRRILQPMLDSSCSETPKTKKKTAQNRPVQRFWPDSIASGVAQPPPSELTMSEGAVVTITTPVNMNVDSLQSLSSDGATLAVQQVMMAGQSEDESVDSTEEDAGALAPAHISGLVLENSDSLQ
B8 was tested, and the Y2H matrices [1] was “+”, the “IMAP Y2H IMAP1 (number of IST)” value [2] was 1 and the “Interaction with viral protein” value [3] was “NS3”.
